According to publication PMC4169579, “Proteolytic Activity of Prostate-Specific Antigen (PSA) towards Protein Substrates and Effect of Peptides Stimulating PSA Activity” (PLoS ONE, 2014):
Positions of bridges follow the written chain, without caps; N, C: chain ends. No end group written: not given here.

Key:
[1] = molecular target: T1, Prostate-specific antigen (PSA or kallikrein-related peptidase-3, KLK3), major form of active PSA (isoform … (human, UniProt P07288 25-261)); test: cell-based or functional assay
T1 sequence (P07288 25-261): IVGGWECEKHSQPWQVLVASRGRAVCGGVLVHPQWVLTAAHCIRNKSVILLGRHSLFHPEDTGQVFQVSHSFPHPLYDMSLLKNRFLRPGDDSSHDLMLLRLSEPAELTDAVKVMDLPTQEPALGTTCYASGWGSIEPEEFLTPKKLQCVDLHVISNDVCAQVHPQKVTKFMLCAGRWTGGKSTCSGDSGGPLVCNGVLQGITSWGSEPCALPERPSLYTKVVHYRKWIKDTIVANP

[2] = molecular target: T1, Prostate-specific antigen (PSA or …); test: SPR; Biacore T100; PSA amine-coupled to a CM5 chip (2000-3900 RU); alpha-chymotrypsin surface as reference, subtracted; peptides 1.2-600 uM flowed in PBS pH 7.4 (6.7 mM PO4, 0.15 M NaCl), 40 ul/min, 25 C, contact 60 s, dissociation 180 s; Steady State Affinity model; conditions: both partners purified

With CVAYCIEHHCWTC (disulfide 1-13, 5-10) [13-amino acid double cyclic peptide C4] the “[peptide]2V: peptide concentration with two-fold stimulation of PSA activity, chromogenic substrate S-2586” value [1] was 1.55 µM and the “[peptide]2V: peptide concentration with two-fold stimulation of PSA activity, fluorogenic substrate 4-morpholinecarbonyl-HSSKLQ-AMC” value [1] was 1.36 µM.

B1: 12-amino acid cyclic peptide B2 with C-terminal amidation (B2-NH2) (peptide)
peptide: CVFAHNYDYLVC-NH2
modifications: disulfide 1-12; N-terminus assumed
SMILES: CC(C)C[C@@H]1NC(=O)[C@H](Cc2ccc(O)cc2)NC(=O)[C@H](CC(=O)O)NC(=O)[C@H](Cc2ccc(O)cc2)NC(=O)[C@H](CC(N)=O)NC(=O)[C@H](Cc2c[nH]cn2)NC(=O)[C@H](C)NC(=O)[C@H](Cc2ccccc2)NC(=O)[C@H](C(C)C)NC(=O)[C@@H](N)CSSC[C@@H](C(N)=O)NC(=O)[C@H](C(C)C)NC1=O
notes: cyclic; purity over 95% by HPLC; source: synthetic peptide, bought as custom peptide (AnaSpec, NeoMPS, Biomatik or GenScript)
With B1 the “[peptide]2V: peptide concentration with two-fold stimulation of PSA activity, chromogenic substrate S-2586” value [1] was 3.33 µM, the “[peptide]2V: peptide concentration with two-fold stimulation of PSA activity, fluorogenic substrate 4-morpholinecarbonyl-HSSKLQ-AMC” value [1] was 2.94 µM and the Kd [2] was 56.5 µM.

B2: 12-amino acid cyclic peptide B2 (without C-terminal amidation) (peptide)
peptide: CVFAHNYDYLVC-OH
modifications: disulfide 1-12; N-terminus assumed
SMILES: CC(C)C[C@@H]1NC(=O)[C@H](Cc2ccc(O)cc2)NC(=O)[C@H](CC(=O)O)NC(=O)[C@H](Cc2ccc(O)cc2)NC(=O)[C@H](CC(N)=O)NC(=O)[C@H](Cc2c[nH]cn2)NC(=O)[C@H](C)NC(=O)[C@H](Cc2ccccc2)NC(=O)[C@H](C(C)C)NC(=O)[C@@H](N)CSSC[C@@H](C(=O)O)NC(=O)[C@H](C(C)C)NC1=O
notes: as for B1
With B2 the Kd [2] was 73.6 µM.
